# Measurements published in patent US20120301930A1 (YEDA RESEARCH AND DEVELOPMENT, published 2012).
# T1: f-5A chimera (catalytic module of T. fusca family-5 endoglucanase Cel5A fused to a dockerin from Ruminococcus …)
# T1 construct: Recombinant chimera expressed in E. coli; all enzyme constructs were designed to contain a His-tag; also called variant Cel5A
# T1 chain: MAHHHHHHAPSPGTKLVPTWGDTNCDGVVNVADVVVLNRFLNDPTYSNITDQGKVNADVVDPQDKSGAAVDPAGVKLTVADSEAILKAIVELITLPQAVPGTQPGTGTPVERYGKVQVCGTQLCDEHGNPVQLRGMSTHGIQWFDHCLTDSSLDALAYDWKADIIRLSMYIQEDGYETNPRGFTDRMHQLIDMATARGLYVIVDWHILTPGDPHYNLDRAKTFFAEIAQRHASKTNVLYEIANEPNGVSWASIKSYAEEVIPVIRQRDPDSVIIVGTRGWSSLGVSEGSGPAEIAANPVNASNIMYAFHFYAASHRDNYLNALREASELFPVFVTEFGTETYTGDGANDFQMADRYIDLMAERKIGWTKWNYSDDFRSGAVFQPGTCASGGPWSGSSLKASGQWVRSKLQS
# T2: 10B-t chimera (catalytic module of T. fusca Xyn10B attached directly to dockerin S of Cel48S from Clostridium …)
# T2 construct: Recombinant chimera expressed in E. coli, purified on a Ni column (His-tag); also called variant Xyn10B
# T2 chain: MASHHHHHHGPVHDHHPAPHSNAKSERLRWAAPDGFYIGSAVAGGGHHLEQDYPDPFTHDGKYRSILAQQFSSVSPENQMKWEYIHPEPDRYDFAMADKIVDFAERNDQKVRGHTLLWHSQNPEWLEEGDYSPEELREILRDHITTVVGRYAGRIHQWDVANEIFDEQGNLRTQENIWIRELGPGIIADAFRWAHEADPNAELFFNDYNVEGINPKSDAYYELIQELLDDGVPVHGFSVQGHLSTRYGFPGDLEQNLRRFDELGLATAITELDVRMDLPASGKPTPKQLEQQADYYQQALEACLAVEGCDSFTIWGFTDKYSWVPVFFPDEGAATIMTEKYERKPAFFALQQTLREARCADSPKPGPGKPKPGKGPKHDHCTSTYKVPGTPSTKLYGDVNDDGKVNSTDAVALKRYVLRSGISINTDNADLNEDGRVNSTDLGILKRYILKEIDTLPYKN
# Experiments:
# Experiment in all cases: affinity-based ELISA; complex formation also by non-denaturing PAGE
# [1] = target: T3, 11A-a chimera (catalytic module of T. fusca Xyn11A attached directly to dockerin B from Acetivibrio …)
# T3 construct: Recombinant chimera expressed in E. coli, purified on a Ni column (His-tag)
# [2] = target: T4, 11A-XBM-a chimera (catalytic module of T. fusca Xyn11A together with its adjacent XBM attached to dockerin B …)
# T4 construct: Recombinant chimera expressed in E. coli, purified on a Ni column (His-tag); also called variant Xyn11A
# [3] = target: T1, f-5A chimera (catalytic module of T. …)
# [4] = target: T2, 10B-t chimera (catalytic module of T. …)
binding result [1],binding result [2],binding result [3],binding result [4],Binder
binds,binds,binds,binds,"Scaf-ATF chimeric scaffoldin (cohesins A, T and F with the cellulose-binding CBM) (other) MDLQVDIGSTSGKAGSVVSVPITFTNVPKSGIYALSFRTNFDPQKVTVASIDAGSLIENASDFTTYYNNENGFASMTFEAPVDRARIIDSDGVFATINFKVSDSAKVGELYNITTNSAYTSFYYSGTDEIKNVVYNDGKIEVIASVPTNTPTNTPANTPVSGNLKVEFYNSNPSDTTNSINPQFKVTNTGSSAIDLSKLTLRYYYTVDGQKDQTFWCDHAAIIGSNGSYNGITSNVKGTFVKMSSSTNNADTYLEISFTGGTLEPGAHVQIQGRFAKNDWSNYTQSNDYSFKSASQFVEWDQVTAYLNGVLVWGKEPGGSVVPSTQPVTTPPATTKPPATTIPPSDDPNAIKIKVDTVNAKPGDTVNIPVRFSGIPSKGIANCDFVYSYDPNVLEIIEIKPGELIVDPNPDKSFDTAVYPDRKIIVFLFAEDSGTGAYAITKDGVFATIVAKVKSGAPNGLSVIKFVEVGGFANNDLVEQRTQFFDGGVNVGDIGSAGGLSAVQPNVSLGEVLDVSANRTAADGTVEWLIPTVTAAPGQTVTMPVVVKSSSLAVAGAQFKIQAATGVSYSSKTDGDAYGSGIVYNNSKYAFGQGAGRGIVAADDSVVLTLAYTVPADCAEGTYDVKWSDAFVSDTDGQNITSKVTLTDGAIIVHHHHHH"
binds,binds,,binds,"Scaf AT chimeric scaffoldin (A. cellulolyticus cohesin 3, cellulose-binding CBM, cohesin 3 from the C. thermocellum CipA scaffoldin) (other) MDLQVDIGSTSGKAGSVVSVPITFTNVPKSGIYALSFRTNFDPQKVTVASIDAGSLIENASDFTTYYNNENGFASMTFEAPVDRARIIDSDGVFATINFKVSDSAKVGELYNITTNSAYTSFYYSGTDEIKNVVYNDGKIEVIASVPTNTPTNTPANTPVSGNLKVEFYNSNPSDTTNSINPQFKVTNTGSSAIDLSKLTLRYYYTVDGQKDQTFWCDHAAIIGSNGSYNGITSNVKGTFVKMSSSTNNADTYLEISFTGGTLEPGAHVQIQGRFAKNDWSNYTQSNDYSFKSASQFVEWDQVTAYLNGVLVWGKEPGGSVVPSTQPVTTPPATTKPPATTIPPSDDPNAIKIKVDTVNAKPGDTVNIPVRFSGIPSKGIANCDFVYSYDPNVLEIIEIKPGELIVDPNPDKSFDTAVYPDRKIIVFLFAEDSGTGAYAITKDGVFATIVAKVKSGAPNGLSVIKFVEVGGFANNDLVEQRTQFFDGGVNVGDIHHHHHH"
